Experimental findings from PMC3326194 (Nature, 2012) are described below.

A word on the stoichiometry N: it is the number of molecules, sites or subunits per partner or assembly.

The labels stand for the following.
T1: corrinoid iron-sulfur protein (CFeSP) from Moorella thermoacetica (Moorella thermoacetica, UniProt Q07340 1-446; Q07341 1-323)
T1 sequence (looked up) 1: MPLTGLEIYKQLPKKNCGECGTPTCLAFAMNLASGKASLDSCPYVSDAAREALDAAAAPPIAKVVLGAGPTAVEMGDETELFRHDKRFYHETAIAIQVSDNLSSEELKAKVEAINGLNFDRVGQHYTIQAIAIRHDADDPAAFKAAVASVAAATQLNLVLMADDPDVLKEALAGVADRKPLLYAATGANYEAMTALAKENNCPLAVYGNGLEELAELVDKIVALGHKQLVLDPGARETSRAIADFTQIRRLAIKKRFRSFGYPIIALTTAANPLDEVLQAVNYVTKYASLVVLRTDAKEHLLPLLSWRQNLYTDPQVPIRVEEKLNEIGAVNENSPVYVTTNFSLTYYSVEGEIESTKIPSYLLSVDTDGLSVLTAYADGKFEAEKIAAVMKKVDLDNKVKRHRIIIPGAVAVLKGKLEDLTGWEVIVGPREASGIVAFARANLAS
T1 sequence (looked up) 2: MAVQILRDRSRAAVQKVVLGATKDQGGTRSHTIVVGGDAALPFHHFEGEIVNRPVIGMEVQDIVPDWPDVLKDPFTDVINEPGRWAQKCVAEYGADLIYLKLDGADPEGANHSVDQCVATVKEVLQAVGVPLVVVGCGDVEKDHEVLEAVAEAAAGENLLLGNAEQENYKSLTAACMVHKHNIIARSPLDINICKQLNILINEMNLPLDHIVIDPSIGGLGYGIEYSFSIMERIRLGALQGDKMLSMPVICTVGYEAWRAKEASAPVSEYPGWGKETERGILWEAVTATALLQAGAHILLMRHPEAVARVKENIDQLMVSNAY

T2: CFeSP large subunit from Moorella thermoacetica (Moorella thermoacetica, UniProt Q07340 1-446)
T2 sequence (looked up): T1 sequence (looked up) 1

B1: methyltransferase (MeTr) from Moorella thermoacetica (enzyme, UniProt Q46389 1-262, looked up)
chain: MLIIGERINGMFGDIKRAIQERDPAPVQEWARRQEEGGARALDLNVGPAVQDKVSAMEWLVEVTQEVSNLTLCLDSTNIKAIEAGLKKCKNRAMINSTNAEREKVEKLFPLAVEHGAALIGLTMNKTGIPKDSDTRLAFAMELVAAADEFGLPMEDLYIDPLILPANVAQDHAPEVLKTLQQIKMLADPAPKTVLGLSNVSQNCQNRPLINRTFLAMAMACGLDAAIADACDEALIETAATAEILLNQTVYCDSFVKMFKTR
B2: CFeSP small subunit from Moorella thermoacetica (natural protein, UniProt Q07341 1-323, looked up)
chain: T1 sequence (looked up) 2

Test in all cases: crystal structure
Series [1] has as its target T1, corrinoid iron-sulfur protein (CFeSP) ….
Series [2] concerns the target B2.
The series “crystal structure” concerns the molecule itself.
Series [3] deals with T2, CFeSP large subunit from Moorella ….

Take B1: the binding result in series [1] and in series [2] was “binds” throughout. Also, the “stoichiometry N” value in the series “crystal structure” came out at 2.

In the case of B2, the binding result in series [3] is reported as “binds”.
